Measured values taken from patent US20160208003A1 (AFFITECH RESEARCH, published 2016).
Numbering of substitutions follows the chain as printed. One block for each binder: values may come before it.

What was measured:
[1] = target: T1, human CC chemokine receptor 4 (CCR4) (human, UniProt P51679 1-360); assay: calculated from the IC50 (KD=IC50/(1+[bio-MDC]/KD MDC)); DT-40-CCR4+ cells, competitor biotinylated MDC
T1 construct: whole, on cells; Always presented on cells; also called CD194; human CCR4
T1 sequence (looked up): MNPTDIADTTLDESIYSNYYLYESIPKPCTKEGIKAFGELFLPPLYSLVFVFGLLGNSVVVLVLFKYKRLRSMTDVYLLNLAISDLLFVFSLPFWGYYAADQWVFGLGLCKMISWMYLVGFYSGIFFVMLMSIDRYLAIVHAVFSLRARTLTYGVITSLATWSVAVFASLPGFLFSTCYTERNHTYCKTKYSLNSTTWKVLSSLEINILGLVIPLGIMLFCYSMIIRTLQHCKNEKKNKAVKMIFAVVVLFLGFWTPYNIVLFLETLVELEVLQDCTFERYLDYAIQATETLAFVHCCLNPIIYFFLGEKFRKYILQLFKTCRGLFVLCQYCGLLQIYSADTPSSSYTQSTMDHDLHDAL

[2] = target: T1, human CC chemokine receptor 4 (CCR4); assay: flow cytometry competition on DT-40-CCR4+ cells; IgG titrated, competitor biotinylated MDC (ca. 10 nM)
Experimental: (§1) The competition binding assays were performed with biotinylated MDC or biotinylated TARC on DT-40-CCR4+ and CCRF-CEM cells. DT40 and CCRF-CEM cells were cultured as described in Example 2. TARC and MDC were biotinylated using standard procedures. The biotinylation process causes some losses, so the concentrations of biotinylated MDC and TARC recited herein are approximate.
(§2) The cells were harvested from culture flasks, washed 2 times with PBS (400×g, 5 min, 4° C.) and resuspended in PBS containing 0.2% BSA and 0.09% NaN3. 1×10^5 cells per well were aliquoted into V-shaped 96-well plates (Greiner Bio-One, Frikenhausen, Germany). Cells were centrifuged (400×g, 5 min, 4° C.) and resuspended in 50 μl IgG, single chain or unlabeled ligand (1:10 dilution series starting on 100/500/26, 4 μg/ml) mixed with a fixed concentration of biotinylated ligand (10 or 20 nM, see legend to FIG. 24). The cells were incubated for 2 hours at 4° C. and mixed with a pipette every 45 min. The cells were washed three times with 150 μl PBS with 0.2% BSA and 0.09% NaN3 and stained with 3 μg/ml streptavidin PE (BD Biosciences) for 45 minutes at 4° C. […] Apparent binding affinities (KD) were calculated according to the following equation derived from previously described methods (Kipriyanov et al, 1997b; Schodin & Kranz, 1993): […]

[3] = target: T1, human CC chemokine receptor 4 (CCR4); assay: flow cytometry competition on CCRF-CEM cells; IgG titrated, competitor biotinylated MDC (ca. 10 or 20 nM); second of three IC50 values on CCRF-CEM cells; inhibition of biotinylated MDC
Experimental: as §1, §2

[4] = target: T1, human CC chemokine receptor 4 (CCR4); assay: calculated from the IC50; DT-40-CCR4+ cells, competitor 3.3 nM biotinylated IgG 9E
Experimental: (§3) DT40 and CCRF-CEM cells were cultivated as described in Example 2. The cells were harvested from culture flasks, washed 2 times with PBS (400×g, 5 min, 4° C.) and resuspended in PBS containing 0.2% BSA and 0.09% NaN3. 1×10^5 cells per well were aliquoted into V-shaped 96-well plates (Griner Bio-One, Frikenhausen, Germany). Cells were centrifuged (400×g, 5 min, 4° C.) and resuspended in 50 μl IgG 9E10J or KM3060var (dilution series starting at 5 μg/ml) mixed with biotinylated competitor antibody 9E (0.1 or 0.5 μg/ml). The cells were incubated for 2 hours at 4° C., mixing with a pipette every 45 min. The cells were washed three times with 150 μl PBS with 0.2% BSA and 0.09% NaN3 and stained with 3 μg/ml streptavidin PE (BD Biosciences) for 45 minutes at 4° C. Cells were washed, resuspended in 200 μl PBS with 0.2% BSA and 0.09% NaN3, and transferred to a U-shaped 96 well Costar (Corning, Schiphol-Rijik, The Netherlands) plate for flow cytometry using an FACS Canto II flow cytometer (BD Biosciences, Heidelberg, Germany).

[5] = target: T1, human CC chemokine receptor 4 (CCR4); assay: calculated from the IC50 (KD=IC50/(1+[bio-IgG 9E]/KD 9E)); DT-40-CCR4+ cells, competitor 3.3 nM biotinylated IgG 9E
Experimental: as §3

[6] = target: T1, human CC chemokine receptor 4 (CCR4); assay: flow cytometry, IgG titration on CCRF-CEM cells; one site-specific binding fit (Prism)
Experimental: The IgG forms of antibodies 17G, 9E and KM3060var using various CCR4⁺ cell types were used (see Example 2).
(§4) For the flow cytometry experiments, the cells were harvested from the culture flasks, washed 2 times with PBS, re-suspended in PBS with 0.2% BSA and 0.09% NaN₃ and finally aliquoted 1×10⁵ cells per well into V-shaped 96-well plates (Greiner Bio-One, Frickenhausen, Germany). Cells were centrifuged at 400×g for 5 min and then incubated at 4° C. for 45 min with different antibody dilutions.
(§5) After washing with PBS with 0.2% BSA and 0.09% NaN₃, the cells were stained with 10 μg/ml of RPE-conjugated goat anti-human IgG (AbDSerotec, Düsseldorf, Germany) for 30 minutes at 4° C. The stained cells were washed, re-suspended in 200 μl PBS with 0.2% BSA and 0.09% NaN₃ and transferred to a U-shaped 96-well plate (Corning, Schiphol-Rijk, The Netherlands) for acquisition on EasyCyte flow cytometer (Guava Technologies, Hayward, Calif., USA).

[7] = target: T1, human CC chemokine receptor 4 (CCR4); assay: flow cytometry, IgG titration on CCRF-CEM cells (natural CCR4+), triplicates, RPE goat anti-human IgG, Median (YLW-HLog)
Source text: As a positive control, in-house cloned and expressed KM3060var IgG which is specific for an epitope present in positions 2-29 in N-terminal part of human CCR4 (EP1270595) was used. An anti-GFP antibody (raised against the green fluorescent protein) or the anti-VZV antibody (raised against Varicella zoster virus) were used as negative controls (anti-GFP both as scFv and IgG, while anti-VZV only as scFv).
as §4, §5

- Kd [1]: 0.01 nM
- IC50 [2]: 0.76 nM
- IC50 [3]: 6.28 nM
- Kd [4]: 0.09 nM
B1: 9E10J IgG (full length human IgG1, lambda) (antibody, V domains shown)
VH: QVQLVQSGAEVKKPGSSVKVSCKASGGTFSSYAISWVRQAPGQGLEWMGGIIPIFGTANYAQKFQGRVTMTRDTSTSTVYMELSSLRSEDTAVYYCARRGGSYFDYWGQGTLVTVSS
VL: SYVLTQPPSASGTPGQSVTISCSGSTSNIGSHYVFWYQQLPGTAPRLLIYRNHQRPSGVPDRLSGSKSGTSASLAISGLRSEDEADYYCAVWDDTLSGWVFGGGTKLTVLG
notes: also called IgG 9E10J; unmodified 9E10J

- Kd [5]: 2.1 nM
- Kd [6]: 0.39 nM
- EC50 (read off the curve) [7]: ~0.4 nM
B2: 9E IgG (full length human IgG1, lambda) (antibody, V domains shown)
VH: B1 VH with S31N, M70I, R72A, T74E, V79A
VL: B1 VL
notes: also called IgG 9E; IgG1 9E
